Measured values from patent publication US20050064507A1, “Determining kinase specificity” (priority 2003, published 2005).

Target: T1, PKC-delta (Homo sapiens, UniProt Q05655)
T1 construct: purchased Calbiochem
Assay: In vitro kinase assay: peptide phosphorylation by PKC-delta
Format: biochemical
Conditions: for Measured in vitro phosphorylation by PKC-delta: peptide concentration of 10 nM, percentage of phosphorylation of the best validating peptide substrate; for phosphorylation in the in vitro validating assay: PKC-delta
Source text: One approach to validating a substrate identification method can involve, for example, comparison of substrate sites predicted by the method with in vitro phosphorylation results obtained using the selected kinase and peptides of known sequences. Such a systematic validation has been performed for the methods described herein. For example, a panel of seventy five peptides was synthesized, the phosphorylation observed for each peptide was experimentally measured, the amount of phosphorylation was quantified, the phosphorylation results for each peptide were normalized to the phosphorylation observed with the best substrate tested and these amounts were compared with predictions made according to the invention and according to the procedures provided by others. These peptides are referred to herein as proteomic peptides because their sequences are chosen from proteins in the human proteome; unlike the test sets employed herein, these peptides include no degenerate positions
Table 2 compares the present predictions with actual measurements of phosphorylation on validating peptides. The method of synthesis of the validating peptides was as described elsewhere in the application, and each included an N-terminal linker sequence of biotinylated-Lys-dansylated-Lys-Pro-Pro-Gly (SEQ ID NO:231). The length of the remaining “core” of the validating peptides ranged from 12-21 residues with one to five S/T residues. In vitro phosphorylation of these validating peptides was measured in the manner described herein. […] In vitro phosphorylation results for the validating peptides were expressed as normalized values, namely as a percentage of phosphorylation of the best validating peptide substrate in the group.
The conditions of the kinase assay and the amount of active kinase used varied with the kinase and with the accuracy needed. For a typical experiment, 5-20 ng of kinase was used per well and each peptide pool was assayed in duplicate wells. Note that the absolute amount of kinase used was not usually a critical parameter, because the desired information related to specificity of the kinase not its absolute activity, and robustness of the assay depends on comparisons of the same amount of kinase on different peptides. The combination of kinase concentration and assay duration was modified to assure that the stoichiometry of peptide phosphorylation never exceeded 5%. The choice of kinase buffer depended on the kinase being analyzed. For studies of PKC, 100 mM HEPES, 0.05% Triton-X100, 1 mM CaCl2, 20 mM MgCl2, 0.2 mg/ml phosphatidyl serine (Avanti Polar Lipids), PMA 100 ng/ml was typically used. The lipid stock was prepared by transferring 3 mg phosphatidyl serine into iced mixture of 450 μl water plus 50 μl of 10% Triton-X100, sonicating 10 times on ice for 1 sec each.
The kinase reaction mixture was assembled by sequential addition to a tube held on ice of: 5 μl peptide (100 μM for final concentration of 10 μM), 15 μl of kinase (typically 5 ng/well, in appropriate kinase buffer), 30 μl of ATP (1 uCi/well of ^32P-gamma ATP in a stock of 167 μM cold ATP in the kinase buffer; for final concentration for 100 μM ATP). The mixture was rapidly warmed to desired reaction temperature (30° C. for PKC) and incubated for the desired duration (usually 10 minutes). The kinase assay was terminated by transfer to 4° C. water batch, and rapid addition of an equal volume (50 μl) of stop solution [0.1M ATP+0.1M EDTA in water, pH 8].
The peptides were then captured from the reaction mixture by transfer to a Reacti-Bind Streptavidin High Binding Capacity Coated Plates (HBC) (Pierce Biotechnology) as follows. The HBC plates were pre-rinsed three times with PBS/Tween PBS/Tween20 0.05% (PBS/Tween). […]

T1 sequence (Q05655 whole entry): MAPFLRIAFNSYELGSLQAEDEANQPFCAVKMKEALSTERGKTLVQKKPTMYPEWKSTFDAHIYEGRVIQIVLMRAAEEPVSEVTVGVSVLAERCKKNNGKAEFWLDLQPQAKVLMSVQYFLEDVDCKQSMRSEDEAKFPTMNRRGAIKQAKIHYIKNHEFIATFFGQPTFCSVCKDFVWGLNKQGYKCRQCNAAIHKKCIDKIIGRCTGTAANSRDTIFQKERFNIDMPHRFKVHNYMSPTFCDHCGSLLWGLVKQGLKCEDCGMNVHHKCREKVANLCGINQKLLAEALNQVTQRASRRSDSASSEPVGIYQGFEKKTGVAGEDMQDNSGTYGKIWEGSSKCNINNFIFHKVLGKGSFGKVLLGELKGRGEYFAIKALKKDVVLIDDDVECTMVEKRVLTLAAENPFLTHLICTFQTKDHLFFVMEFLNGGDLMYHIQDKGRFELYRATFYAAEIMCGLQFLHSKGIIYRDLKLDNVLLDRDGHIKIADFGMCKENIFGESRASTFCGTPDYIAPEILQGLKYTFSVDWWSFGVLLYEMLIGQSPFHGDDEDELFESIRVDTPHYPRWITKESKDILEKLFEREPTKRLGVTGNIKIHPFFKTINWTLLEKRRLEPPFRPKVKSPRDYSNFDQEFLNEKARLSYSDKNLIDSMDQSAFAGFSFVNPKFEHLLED

Substance	Measured in vitro phosphorylation by PKC-delta	phosphorylation in the in vitro validating assay
1 (HVRRRRGTFKRSKLRARD) [compound 1]	100%	–
2 (KKKKRASFKRKSSKKG) [compound 2]	76%	–
3 (NRKKKRTSFKRKA) [compound 3]	66%	–
4 (KFARKSTRRSIRLPE) [compound 4]	52%	highly phosphorylated
5 (RQRKRKLSFRRRTDKD) [compound 5]	42%	–
6 (PRLIRRGSKKRPAR) [compound 6]	40%	–
7 (RKIPKRPGSVHRTPSRQ) [compound 7]	38%	highly phosphorylated
8 (AARKKRISVKKKQEQ) [compound 8]	35%	–
9 (QKKSRLRRRASQLKI) [compound 9]	34%	highly phosphorylated
10 (AQIVKRASLKRGKQ) [compound 10]	32%	–
11 (KKKFRTPSFLKKSKK) [compound 11]	25%	highly phosphorylated
12 (KKKKKRFSFKKSFKL) [compound 12]	24%	–
13 (WKGKRRSKARKKRK) [compound 13]	22%	–
14 (EYLERRASRRRAV) [compound 14]	20%	–
15 (RGFLRSASLGRRASFHLE) [compound 15]	18%	–
16 (DGQKRKKSLRKKLD) [compound 16]	17%	–
17 (AGWRKKTSFRKPKED) [compound 17]	17%	–
18 (KKRFSFKKSFKLSGFSFKKN) [compound 18]	16%	–
19 (AGSFKRNSIKKIV) [compound 19]	14%	–
20 (GAPPRRSSIRNAH) [compound 20]	13%	–
21 (KLAVGRHSFSRRSGV) [compound 21]	12%	–
22 (LLKKRDSFRTPRDSKLE) [compound 22]	12%	–
23 (QKRHARVTVKYDRRE) [compound 23]	10%	–
24 (EKIKRSSLKKVDSLKK) [compound 24]	10%	–
25 (EILSRRPSYRKILND) [compound 25]	9%	–

Substance	Measured in vitro phosphorylation by PKC-delta	phosphorylation in the in vitro validating assay
26 (ALRRPSLRREADD) [compound 26]	9%	–
27 (KKRKKKSSKSLAHA) [compound 27]	8%	–
28 (KRPGKKGSNKRPGKR) [compound 28]	8%	–
29 (RKNDRKKRYTVVGNP) [compound 29]	8%	–
30 (KEVVRTDSLKGRRGR) [compound 30]	7%	–
31 (RKKRKKKSSKSLAHAGVALA) [compound 31]	>5%	–
32 (KATTKKRTLRKNDRK) [compound 32]	>5%	–
34 (EGGDRRASGRRK) [compound 34]	5%	–
35 (GLLDRKGSWKKLDDM) [compound 35]	4%	–
36 (GENVLKKSMKSRVKG) [compound 36]	4%	–
37 (AYIERMNSIHRDLRA) [compound 37]	3%	–
38 (NYLRRRLSDSNFMAN) [compound 38]	3%	–
39 (LLGSGKVTDRKAL) [compound 39]	3%	–
40 (NMEAKKLSKDRMKKY) [compound 40]	3%	–
41 (FVHQASFKFGQGD) [compound 41]	3%	–
42 (QPEGLRSLKKPDRKKR) [compound 42]	3%	–
43 (AWVTVHEKKSSRKSEYL) [compound 43]	3%	–
44 (VLAKKGTSKTPVPE) [compound 44]	2%	–
45 (VFREHQRSGSYHVRE) [compound 45]	2%	–
46 (GQAWGRQSPRRLED) [compound 46]	2%	–
47 (ARIIGEKSFRRSVVG) [compound 47]	2%	–
48 (AVNSRRRAGQKKK) [compound 48]	2%	–
49 (VQQLLRSSNRRLEQL) [compound 49]	2%	–
50 (ENLRRVATDRRHLGH) [compound 50]	2%	–
51 (DLLGKKVSTKTLSEDD) [compound 51]	2%	–

Substance	Measured in vitro phosphorylation by PKC-delta	phosphorylation in the in vitro validating assay
52 (HKHSPEKRGSERKEG) [compound 52]	2%	–
53 (AKNLKTLQKRDSFIG) [compound 53]	2%	–
54 (ENLRKVTTDKKSLAY) [compound 54]	2%	–
55 (DDMEHKTLKITDFG) [compound 55]	2%	–
56 (EARLGAASLKFGARD) [compound 56]	2%	–
57 (KNVVKLLSSRRTQDR) [compound 57]	2%	–
58 (RVKLGTLRRPEGP) [compound 58]	1%	–
59 (PVNKRSKYTMMK) [compound 59]	1%	–
60 (LRRKHLGTLNFGGIR) [compound 60]	1%	poorly phosphorylated
61 (VDNILKKSNKKLEEL) [compound 61]	1%	–
62 (AVRDMRQTVAVGVIK) [compound 62]	1%	–
63 (QRQERIFSKRRGQDF) [compound 63]	1%	–
64 (ALRAPKPTLRYFTTERF) [compound 64]	1%	poorly phosphorylated
65 (IKVTHKATGKVMVMK) [compound 65]	1%	–
66 (GFAKKIGSGQKTWTF) [compound 66]	1%	poorly phosphorylated
67 (AINSRETMFHKERFK) [compound 67]	1%	–
68 (RGEGHKPSIAHRDFK) [compound 68]	1%	–
69 (LALTARESSVRSGGAG) [compound 69]	1%	poorly phosphorylated
70 (HERKGSDKRGDNQ) [compound 70]	1%	–
71 (RRRQKRRTGALVLSRGGKR) [compound 71]	1%	–
72 (LTDPKEDPIYDEPEGLAPVPG) [compound 72]	0%	–
73 (IDYYKKTTNGRLPVK) [compound 73]	0%	–
74 (IDYYKKTSNGRLPVK) [compound 74]	0%	–
